Source: article PMC7274780

Target: Salmonella typhimurium oxaloacetate decarboxylase sodium pump (StOAD) β subunit (Salmonella typhimurium) (UniProt Q03031)
Assay: cryo-EM structure; purified StOAD βγ sub-complex in 20 mM Tris pH 7.5, 100 mM sodium chloride, 2 mM DTT, 0.02% DDM; C3 symmetry imposed; 3.88 Å

## Salmonella typhimurium oxaloacetate decarboxylase sodium pump (StOAD) β subunit (from UniProt Q03031 1-433) (natural protein)
  stoichiometry N: 3
